Drawing on patent publication US20230391828A1, “REGULATORS OF CELL DIVISION” (TECHNISCHE UNIVERSITÄT DRESDEN, priority 2020, published 2023), this text covers Ki and IC50, in vitro APC/C ubiquitination assay (UBE2C, securin, methylated ubiquitin, 0.01-100 µM G3-6, 10 min) for 1 molecule.

Bridge positions count the residues as written; N and C are the ends. Square brackets hold non-standard residues; d marks the D form. R8 = C=CCCCCCC[C@@](C)(N)C(=O)O; S5 = C=CCCC[C@](C)(N)C(=O)O

Experiment [1] has as its target recombinant human APC/C (Strep-tagged APC4), expressed in SF9 cells (human) (UniProt Q9NYG5). In words: inhibitory constant calculated with a model for non-competitive inhibition (Prism 6.0) from the in vitro APC/C ubiquitination assay (UBE2C, securin titration, with or without 3 µM G3-6).
Experiment [2] has the same target. In words: cell-based or functional assay.

Sequence of recombinant human APC/C (Strep-tagged APC4), expressed in SF9 cells (human) (Q9NYG5 whole entry, chain 1 of 2): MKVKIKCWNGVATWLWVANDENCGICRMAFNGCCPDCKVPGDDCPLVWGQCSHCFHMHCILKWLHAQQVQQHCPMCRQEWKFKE
Sequence of recombinant human APC/C (Strep-tagged APC4), expressed in SF9 cells (human) (Q9UJX5 whole entry, chain 2 of 2, further chain): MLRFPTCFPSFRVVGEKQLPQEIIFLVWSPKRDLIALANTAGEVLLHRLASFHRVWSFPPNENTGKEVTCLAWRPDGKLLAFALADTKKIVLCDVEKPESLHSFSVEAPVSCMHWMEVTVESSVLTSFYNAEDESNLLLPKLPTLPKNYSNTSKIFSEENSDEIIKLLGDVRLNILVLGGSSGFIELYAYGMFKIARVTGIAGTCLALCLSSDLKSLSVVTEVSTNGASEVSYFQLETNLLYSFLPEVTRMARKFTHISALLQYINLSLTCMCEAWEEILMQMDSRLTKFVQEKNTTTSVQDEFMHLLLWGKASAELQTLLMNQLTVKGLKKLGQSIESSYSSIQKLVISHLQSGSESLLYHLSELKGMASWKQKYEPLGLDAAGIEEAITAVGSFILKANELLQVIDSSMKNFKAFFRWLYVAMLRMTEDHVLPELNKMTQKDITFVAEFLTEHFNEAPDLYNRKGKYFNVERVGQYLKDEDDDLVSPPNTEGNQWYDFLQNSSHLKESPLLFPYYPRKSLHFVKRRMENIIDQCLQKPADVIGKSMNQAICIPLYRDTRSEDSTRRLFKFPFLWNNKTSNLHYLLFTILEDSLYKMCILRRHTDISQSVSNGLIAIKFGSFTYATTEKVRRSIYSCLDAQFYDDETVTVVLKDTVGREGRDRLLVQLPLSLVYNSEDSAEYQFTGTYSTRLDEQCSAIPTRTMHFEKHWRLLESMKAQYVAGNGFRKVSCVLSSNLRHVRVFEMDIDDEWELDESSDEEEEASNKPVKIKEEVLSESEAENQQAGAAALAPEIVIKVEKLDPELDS

B1: G3-6, Ac-cyclo(4,11)-EWWZIKEIQRXRRA-NH2 (peptide)
peptide: Ac-EWW[R8]IKEIQR[S5]RRA-NH2
modifications: staple 4-11
SMILES: CC[C@H](C)[C@@H]1NC(=O)[C@H](CCC(=O)O)NC(=O)[C@H](CCCCN)NC(=O)[C@H]([C@@H](C)CC)NC(=O)[C@](C)(NC(=O)[C@H](Cc2c[nH]c3ccccc23)NC(=O)[C@H](Cc2c[nH]c3ccccc23)NC(=O)[C@H](CCC(=O)O)NC(C)=O)CCCCCCC=CCCC[C@@](C)(C(=O)N[C@@H](CCCNC(=N)N)C(=O)N[C@@H](CCCNC(=N)N)C(=O)N[C@@H](C)C(N)=O)NC(=O)[C@H](CCCNC(=N)N)NC(=O)[C@H](CCC(N)=O)NC1=O
As for B1, the Ki (usually the equilibrium dissociation constant of an inhibitor or competing ligand from its target) in experiment [1] is 5 µM. Besides, the IC50, in vitro APC/C ubiquitination assay (UBE2C, securin, methylated ubiquitin, 0.01-100 µM G3-6, 10 min) in experiment [2] was found to be 1.96 µM.
